Laboratory results published in article PMC3836730, “Molecular Cloning and Characterization of Taurocyamine Kinase from Clonorchis sinensis: A Candidate Chemotherapeutic Target” (PLoS Neglected Tropical Diseases, 2013).

Assays:
Assay in all cases: purified protein
Assay type in all cases: biochemical, Clonorchis sinensis
N=C(N)NCCS(=O)(=O)O = conditions: co-substrate ATP, Mg-acetate, Tris-HCl pH 8, 25°C
purified protein [1] = substrate: N=C(N)NCCS(=O)(=O)O; conditions: co-substrate ATP, Mg-acetate, Tris-HCl pH 8, 25°C; remark: listed apart in the source
purified protein [2] = substrate: Nc1ncnc2c1ncn2[C@@H]1O[C@H](COP(=O)(O)OP(=O)(O)OP(=O)(O)O)[C@@H](O)[C@H]1O; conditions: co-substrate taurocyamine, Mg-acetate, Tris-HCl pH 8, 25°C

## C. sinensis TK D1 (CsTK D1) (Clonorchis sinensis; I60A)
N=C(N)NCCS(=O)(=O)O
  Km: 0.51 ± 0.07 mM
  kcat: 22.43 ± 0.38 s⁻¹
  kcat/Km: 44000 M⁻¹ s⁻¹

## C. sinensis TK D1 (CsTK D1) (Clonorchis sinensis; R58A)
N=C(N)NCCS(=O)(=O)O
  Km: 0.85 ± 0.06 mM
  kcat: 33.03 ± 1.14 s⁻¹
  kcat/Km: 38900 M⁻¹ s⁻¹

## C. sinensis TK D1 (CsTK D1) (Clonorchis sinensis; Y84A)
N=C(N)NCCS(=O)(=O)O
  Km: 0.82 ± 0.07 mM
  kcat: 32.90 ± 1.54 s⁻¹
  kcat/Km: 40100 M⁻¹ s⁻¹

## C. sinensis TK D2 (CsTK D2) (Clonorchis sinensis; H421A)
N=C(N)NCCS(=O)(=O)O
  Km: 0.36 ± 0.07 mM
  kcat: 5.92 ± 1.23 s⁻¹
  kcat/Km: 15600 M⁻¹ s⁻¹

## C. sinensis TK D2 (CsTK D2) (Clonorchis sinensis; I423A)
N=C(N)NCCS(=O)(=O)O
  Km: 0.30 ± 0.05 mM
  kcat: 6.46 ± 0.45 s⁻¹
  kcat/Km: 21500 M⁻¹ s⁻¹

## C. sinensis TK D2 (CsTK D2) (Clonorchis sinensis; Y447A)
N=C(N)NCCS(=O)(=O)O
  Km: 3.64 ± 0.21 mM
  kcat: 6.45 s⁻¹
  kcat/Km: 1770 M⁻¹ s⁻¹

## C. sinensis TK D2 (CsTK D2) (Clonorchis sinensis; Y447R)
N=C(N)NCCS(=O)(=O)O
  Km: 3.01 ± 0.25 mM
  kcat: 0.99 ± 0.52 s⁻¹
  kcat/Km: 330 M⁻¹ s⁻¹

## C. sinensis TK whole (CsTK D1D2) (Clonorchis sinensis; R58A)
N=C(N)NCCS(=O)(=O)O
  Km: 0.45 ± 0.19 mM
  kcat: 15.00 ± 0.25 s⁻¹
  kcat/Km: 33300 M⁻¹ s⁻¹

B1: C. sinensis TK whole (CsTK D1D2) (Clonorchis sinensis) (protein)
chain: MQVEPLKSLQQKIVNDEANRSFTKKHLTNRIVDLYADKKTSFGGSLAQCVSHNARNPRCILPRACDLDAYEAFREFFDAVIIDYHKVKGDKITHPKSDFGDLKSLNFKDLNADGNMVVSTRVRLGRTVAGYGFCPTISNEQRLELEKKISTALKDLSGEFKGTYYPLTGMKEEDRKKLVEKHFLFRDDDSVLRDAGGYIDWPNGRGIFINEKENFLVWVNEEDHIRVISMQKGGDLIAVYKRLANAISELGKSLTFATNDRFGFITFCPSNLGTTLRASVHARVPYLSALPNFEQICEKYNIQARGTHGEHTASVGGVYDLSNKRRLGLTEIEAVTEMYNGVQALLDLEKQLAAYNKDAPAGVMPVEPLTYLSHLLEAADPVKNYTRKHLTPEIIKKYDGVRTTHGATLAHMVRNGAYNPHSICPRTGEAECYTKFVDYLDAVILDYHGVSDPAFKHPPPTFGDLNNLPFGDVDPEGKFVVSTRVRVGRSVDGFLFSTIMSKQDRLDLETKVSTALKSLTGDHAGSYYPLANMSEATRKQLVEDHFLFKNDDPVLRDAGGYRDWPHGRGIFHNANKTFLVWLCEEDHMRIISMQKGGDLAAVYKRLIQGIQAIEKTLPFAHSDKYGYITCCPSNLGTTMRASVLLKIPKLSAQKAKLDEVCAKYRLQARGLHGEHTESPEGIHDISNKRRLGLTELEAAKEMADGVAQMIAIEKSLP
notes: full-length contiguous two-domain enzyme, 717 residues, 80,274 Da; MBP fusion (pMAL-c2), E. coli TB1, amylose resin; 120 kDa with MBP
Purified protein [1]
  Km: 0.49 ± 0.02 mM
  kcat: 17.78 ± 0.98 s⁻¹
  kcat/Km: 36300 M⁻¹ s⁻¹
Purified protein [2]
  Km: 0.78 ± 0.07 mM
  kcat: 17.78 ± 0.98 s⁻¹

B2: C. sinensis TK D2 (CsTK D2) (Clonorchis sinensis) (protein)
chain: AGVMPVEPLTYLSHLLEAADPVKNYTRKHLTPEIIKKYDGVRTTHGATLAHMVRNGAYNPHSICPRTGEAECYTKFVDYLDAVILDYHGVSDPAFKHPPPTFGDLNNLPFGDVDPEGKFVVSTRVRVGRSVDGFLFSTIMSKQDRLDLETKVSTALKSLTGDHAGSYYPLANMSEATRKQLVEDHFLFKNDDPVLRDAGGYRDWPHGRGIFHNANKTFLVWLCEEDHMRIISMQKGGDLAAVYKRLIQGIQAIEKTLPFAHSDKYGYITCCPSNLGTTMRASVLLKIPKLSAQKAKLDEVCAKYRLQARGLHGEHTESPEGIHDISNKRRLGLTELEAAKEMADGVAQMIAIEKSLP
notes: truncated C-terminal domain D2 (357 residues of the 717-residue two-domain protein, 39,719 Da); MBP fusion (pMAL-c2), E. coli TB1, amylose resin; about 80 kDa with MBP
Purified protein [1]
  Km: 0.48 ± 0.05 mM
  kcat: 4.50 ± 0.11 s⁻¹
  kcat/Km: 9380 M⁻¹ s⁻¹
Purified protein [2]
  Km: 0.75 ± 0.13 mM
  kcat: 4.50 ± 0.11 s⁻¹

B3: C. sinensis TK D1 (CsTK D1) (Clonorchis sinensis) (protein)
chain: MQVEPLKSLQQKIVNDEANRSFTKKHLTNRIVDLYADKKTSFGGSLAQCVSHNARNPRCILPRACDLDAYEAFREFFDAVIIDYHKVKGDKITHPKSDFGDLKSLNFKDLNADGNMVVSTRVRLGRTVAGYGFCPTISNEQRLELEKKISTALKDLSGEFKGTYYPLTGMKEEDRKKLVEKHFLFRDDDSVLRDAGGYIDWPNGRGIFINEKENFLVWVNEEDHIRVISMQKGGDLIAVYKRLANAISELGKSLTFATNDRFGFITFCPSNLGTTLRASVHARVPYLSALPNFEQICEKYNIQARGTHGEHTASVGGVYDLSNKRRLGLTEIEAVTEMYNGVQALLDLEKQLAAYNKDAP
notes: truncated N-terminal domain D1 (360 residues of the 717-residue two-domain protein, 40,573 Da); MBP fusion (pMAL-c2), E. coli TB1, amylose resin; about 80 kDa with MBP
Purified protein [1]
  Km: 0.35 ± 0.01 mM
  kcat: 22.59 ± 0.15 s⁻¹
  kcat/Km: 54500 M⁻¹ s⁻¹
Purified protein [2]
  Km: 0.46 ± 0.12 mM
  kcat: 22.59 ± 0.15 s⁻¹
